According to patent US20070196354A1, “Method of treating diabetes by inhibiting degradation of at least one of crebl1, atf6, and hnf-4 alpha by htra” (priority 2003, published 2007):

Key:
casein = assay: Casein zymography and protease assay with casein sodium; assay type: biochemical; conditions: casein zymography and casein sodium protease assay, 37° C., E. coli-expressed His-tagged protein
Experimental: Determination of the activity of mature HtrA2 and mature HtrA2 (S306A) was carried out with casein zymography and with a protease assay with casein sodium. Casein zymography was carried out according to the protocol (Invitrogen). More concretely, mature HtrA2 and mature HtrA2 (S306A) were mixed under non-reductive condition with equivalent volume of 2×SDS sample buffer, left to stand at room temperature for 10 min, followed by separation with 4-16% zymogram (Blue casein) gel (Zymogram Gel, Invitrogen). After completion of electrophoresis, they were renatured with 2.5% Triton X-100, and then subjected to a degradation reaction of casein in the developing buffer at 37= C. for overnight.
Meanwhile, a protease assay using casein sodium as an substrate was carried out in such that mature HtrA2 or mature HtrA2 (S306A) was mixed with casein sodium in a reaction buffer (150 mM NaCl, 50 mM Tris-HCl (pH 7.5)) so as to the concentration of the former might become 200 μg/ml and the concentration of the latter might become 400 μg/ml, and incubated at 37° C. for reactions. A portion of the reaction solution was sampled at three hours and overnight after initiation of the reaction, mixed with equivalent volume of 2×SDS sample buffer followed by boiling, and then subjected to SDS-PAGE. After that, the degradation of casein sodium was detected by Coomassie Brilliant Blue (CBB) staining.
The enzyme activity of the various types of HtrA2 each of which was expressed in a cultured cell was determined by the protease assay using casein sodium as a substrate (see Example 2).

HNF-4α = biological target: T1, HNF-4α (Homo sapiens, UniProt P41235); assay: In vitro protease assay, HNF-4α captured on resin; assay type: biochemical; conditions: 50 μg/ml, 37° C., overnight (O/N), anti-FLAG detection
T1 construct: expressed in transfected cells; host or cells: HEK293T
T1 sequence (P41235 10-474): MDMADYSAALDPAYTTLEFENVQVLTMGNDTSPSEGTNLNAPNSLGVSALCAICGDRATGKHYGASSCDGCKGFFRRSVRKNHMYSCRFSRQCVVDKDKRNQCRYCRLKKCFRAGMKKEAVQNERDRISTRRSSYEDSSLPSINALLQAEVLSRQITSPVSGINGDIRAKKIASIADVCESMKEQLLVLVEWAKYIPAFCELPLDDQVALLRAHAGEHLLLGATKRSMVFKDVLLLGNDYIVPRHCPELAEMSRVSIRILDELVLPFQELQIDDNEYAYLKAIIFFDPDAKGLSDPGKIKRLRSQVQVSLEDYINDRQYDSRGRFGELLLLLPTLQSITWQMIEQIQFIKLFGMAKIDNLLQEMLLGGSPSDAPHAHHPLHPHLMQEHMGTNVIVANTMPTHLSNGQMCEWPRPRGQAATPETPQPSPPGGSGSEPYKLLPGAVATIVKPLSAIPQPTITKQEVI
Experimental: HNF-4α captured on the resin by immunoprecipitation was used in the experiments in order to eliminate the influence of proteinaceous impurities contained in the HNF-4α soluble fraction. More specifically, 300 μl of HNF-4α soluble fraction was dispensed to six tubes (Nos. 1 to 6), followed by adding 20 μl of protein G sepharose 4 FF (Amersham) of 50% slurry that had been subjected to blocking with BSA, to each of tubes, subjected to overturned mixing at 4° C. for 1 hour, and then subjected to centrifugation (10,000 rpm, 10 sec, 4° C.) to collect the supernatant, and thus the pre-treatment (pre-clean) was performed. The resultant supernatant was mixed with 0.4 μl (2 μg) of anti-FLAG antibody (Sigma) by overturned mixing at 4° C. for 3 hours, followed by adding 20 μl of protein G sepharose 4 FF that had been subjected to blocking with BSA, and then subjected to overturned mixing at 4° C. overnight. Thus, HNF-4α was captured on protein G sepharose 4 FF. […]

B1: mature HtrA2: SEQ ID NO: 4; mature protein generated from HtrA2 precursor by cleavage of N-terminal 133 residues, has protease activity (protein, listed as Homo sapiens)
chain: MAVPSPPPASPRSQYNFIADVVEKTAPAVVYIEILDRHPFLGREVPISNGSGFVVAADGLIVTNAHVVADRRRVRVRLLSGDTYEAVVTAVDPVADIATLRIQTKEPLPTLPLGRSADVRQGEFVVAMGSPFALQNTITSGIVSSAQRPARDLGLPQTNVEYIQTDAAIDFGNSGGPLVNLDGEVIGVNTMKVTAGISFAIPSDRLREFLHRGEKKNSSSGISGSQRRYIGVMMLTLSPSILAELQLREPSFPDVQHGVLIHKVILGSPAHRAGLRPGDVILAIGEQMVQNAEDVYEAVRTQSQLAVQIRRGRETLTLYVTPEVTE
modifications: mature HtrA2
For B1, the degradation of casein (casein) was “degradation of casein by mature HtrA2 was observed” and the “degradation of HNF-4α (band by western blotting)” value (HNF-4α) was “the band of HNF-4α was reduced significantly”.
